The results in this text go back to patent US20250339531A1 (FRED HUTCHINSON CANCER CENTER, published 2025).

Experiment [1] has as its target T1, Uncharacterized protein (Fragment) (Homo sapiens).
T1 construct: also called NA (Homology to TAP2)
Put plainly: anti-FLAG co-IP LC-MS, exp 4, +Dox +IFNG.

Experiment [2] addresses T2, Immunoglobulin kappa variable 2-40 (Homo sapiens).
T2 construct: also called IGKV2-40
Put plainly: anti-FLAG co-IP LC-MS, exp 4, +Dox +IFNG.

Experiment [3] deals with T3, Signal transducer and activator of transcription 1-alpha/beta (Homo sapiens, UniProt P42224 2-750).
T3 construct: also called STAT1
T3 sequence (looked up): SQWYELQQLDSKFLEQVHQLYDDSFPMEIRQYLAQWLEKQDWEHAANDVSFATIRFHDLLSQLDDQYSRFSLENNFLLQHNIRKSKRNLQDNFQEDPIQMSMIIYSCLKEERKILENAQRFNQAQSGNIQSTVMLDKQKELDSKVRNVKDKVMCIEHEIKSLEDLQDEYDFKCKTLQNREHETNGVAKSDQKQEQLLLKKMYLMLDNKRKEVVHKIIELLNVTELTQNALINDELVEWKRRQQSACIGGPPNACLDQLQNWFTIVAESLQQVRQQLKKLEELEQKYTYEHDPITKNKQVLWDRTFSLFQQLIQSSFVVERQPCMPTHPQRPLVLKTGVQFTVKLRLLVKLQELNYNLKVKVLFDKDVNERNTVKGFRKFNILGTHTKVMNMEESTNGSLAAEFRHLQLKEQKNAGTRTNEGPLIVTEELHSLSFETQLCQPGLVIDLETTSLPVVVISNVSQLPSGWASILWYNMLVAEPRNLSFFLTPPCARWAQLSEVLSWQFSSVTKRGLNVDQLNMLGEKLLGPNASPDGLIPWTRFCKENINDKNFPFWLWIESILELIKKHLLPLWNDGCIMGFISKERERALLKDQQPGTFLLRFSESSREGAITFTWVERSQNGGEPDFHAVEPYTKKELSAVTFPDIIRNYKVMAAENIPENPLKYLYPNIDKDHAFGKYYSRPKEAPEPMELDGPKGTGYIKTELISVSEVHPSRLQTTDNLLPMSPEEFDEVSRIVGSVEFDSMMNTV
Put plainly: anti-FLAG co-IP LC-MS, exp 4, +Dox +IFNG.

The target of experiment [4] is T4, Proteasome subunit alpha type (Homo sapiens).
T4 construct: also called PSMA6
Nature of the experiment: anti-FLAG co-IP LC-MS, exp 4, +Dox +IFNG.

The target in experiment [5] is T3, Signal transducer and activator of …. Put plainly: anti-FLAG co-IP and western of truncation series in MB135 cells (FIG. 27A).

T2 sequence (A0A087WW87 20-121): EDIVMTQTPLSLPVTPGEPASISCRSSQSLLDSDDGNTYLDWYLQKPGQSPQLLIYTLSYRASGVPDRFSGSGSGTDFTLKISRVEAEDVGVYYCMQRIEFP

B1: i3XFLAG-NLS-CTDaa154-419mL1dL2 (other)
chain: MDYKDHDGDYKDHDIDYKDDDDKPPKRMRREPKKKRKVGRAPAQAGGLCSAAPGGGHPAPSWVAFAHTGAWGTGLPAPHVPCAPGALPQGAFVSQAARAAPALQPSQAAPAEGISQPAPARGDFAYAAPAPPDGALSHPQAPRWPPHPGKSREDRDPQRDGLPGPCAVAQPGPAQAGPQGQGVLAPPTSQGSPWWGWGRGPQVAGAAWEPQAGAAPPPQPAPPDASASARQGQMQGIPAPSQALQEPAPWSALPCGLLAAEAAASPEFLQQAQPLLETEAPGELEASEEAASLEAPLSEEEYRA
notes: also called longCTDmL1dL2; longCTDmL1DL2
B1: the PSMs came out at 2 PSMs in experiment [1], 1 PSMs in experiment [2], 18 PSMs in experiment [3] and 4 PSMs in experiment [4].

B2: iDUX4aa154-271 (other)
chain: GRAPAQAGGLCSAAPGGGHPAPSWVAFAHTGAWGTGLPAPHVPCAPGALPQGAFVSQAARAAPALQPSQAAPAEGISQPAPARGDFAYAAPAPPDGALSHPQAPRWPPHPGKSREDRD
notes: not shown: N-terminal 3×FLAG tag and NLS
As to B2, the binding result in experiment [5] was “no binding”.
